Reference: patent US20230322953A1 (HARBOUR BIOMED SHANGHAI, published 2023)

T1: biotinylated human BCMA-Fc, Avitag recombinant protein (ACRO Biosystems, #BC7-H82F0) (human, UniProt Q02223 1-54, biotinylated)
T1 construct: extracellular domain; Bought protein; also called human BCMA protein; recombinant human BCMA-ECD-Fc; not shown: Fc of the bought fusion protein; Avitag
T1 sequence (looked up): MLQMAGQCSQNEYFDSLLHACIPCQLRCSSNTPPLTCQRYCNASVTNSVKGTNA

T2: human BCMA (human, UniProt Q02223 1-184)
T2 construct: whole, on cells; the cell line is named under assay; also called TNFRSF17; CD269
T2 sequence (looked up): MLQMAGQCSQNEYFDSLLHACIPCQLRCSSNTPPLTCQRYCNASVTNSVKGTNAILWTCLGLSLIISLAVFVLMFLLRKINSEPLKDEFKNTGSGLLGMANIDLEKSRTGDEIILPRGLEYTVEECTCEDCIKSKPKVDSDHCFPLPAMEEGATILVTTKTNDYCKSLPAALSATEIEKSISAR

B1: PR001573 (bispecific antibody, human IgG1, kappa)
light: DIQMTQSPSTLSASVGDRVTVTCRASQSIYIWLAWYQQKPGKAPNLLIYKASSLETGVPSRFSGSGSGTEFTLTISSLQPDDFATYYCQQYYGSSRTFGQGTKVEIKRTVAAPSVFIFPPSDEQLKSGTASVVCLLNNFYPREAKVQWKVDNALQSGNSQESVTEQDSKDSTYSLSSTLTLSKADYEKHKVYACEVTHQGLSSPVTKSFNRGEC
chain: not shown
notes: PD-L1×CTLA4, structure 3
B2: PR000416, anti-PD-L1 91G3H5H3(D54E), hIgG1 (antibody)
heavy: not shown
light: DIQMTQSPSTLSASVGDRVTVTCRASQSIYIWLAWYQQKPGKAPNLLIYKASSLETGVPSRFSGSGSGTEFTLTISSLQPDDFATYYCQQYYGSSRTFGQGTKVEIKRTVAAPSVFIFPPSDEQLKSGTASVVCLLNNFYPREAKVQWKVDNALQSGNSQESVTEQDSKDSTYSLSSTLTLSKADYEKHKVYACEVTHQGLSSPVTKSFNRGEC
B3: PR001046 VH single-domain molecule (original molecule) (VHH)
VHH: EVQLVETGGGLIQPGGSLRLSCAASGFTVSDNYMTWVRQAPGKGLEWVSVIFSGGNTYYADSVKGRFTISRDNAKNTLYLQMNSLRAEDTALYYCARRNYDDTRGTDVFDIWGQGTMVTVSS
notes: not the HCAb form; not shown: Flag and His tags
B4: PR004559, PR001046 VH-derived single-domain variant 1046-R1-12G7 (VHH)
VHH: EVQLVETGGGLIQPGGSLRLSCAASGFTVSDNYMTWVRQAPGKGLEWVSVIFSGGKTYYADSVKGRFTISRDNAKNTLYLQMNSLRAEDTALYYCARRNYDDTRGTDVFDIWGQGTMVTVSS
notes: Tested as VH single domain with Flag and His tags; also called PR001046-R1-12G7; not shown: Flag and His tags
B5: PR004562, PR001046 VH-derived single-domain variant 1046-R2-10H5 (VHH)
VHH: EVQLVETGGGLIQPGGSLRLSCAASGFTVSDSYMTWVRQAPGKGLEWVSVIFSGGKTYYSDSVKGRFTISRDNAKNTLYLQMNSLRAEDTALYYCARRNYDQTLGTDVFDIWGQGTMVTVSS
notes: Tested as VH single domain with Flag and His tags; not shown: Flag and His tags
B6: PR004561, PR001046 VH-derived single-domain variant 1046-R2-10H1 (VHH)
VHH: EVQLVETGGGLIQPGGSLRLSCAASGFTVSDSYMTWVRQAPGKGLEWVSVIFSGGNTYYADSVKGRFTISRDNAKNTLYLQMNSLRAEDTALYYCARRNYDQTLGTDVFDIWGQGTMVTVSS
notes: as for B5
B7: PR004560, PR001046 VH-derived single-domain variant 1046-R2-10F1 (VHH)
VHH: EVQLVETGGGLIQPGGSLRLSCAASGFTVSDAYMTWVRQAPGKGLEWVSVIFSGGNTYVSDSVKGRFTISRDNAKNTLYLQMNSLRAEDTALYYCARRNYDQTRGTDVFDIWGQGTMVTVSS
notes: as for B5
B8: PR001578 (bispecific antibody, human IgG1, kappa)
chain 1: EVQLVESGGGLIQPGGSLRLSCAVSGFTVSKNYMSWVRQAPGKGLEWVSVVYSGGSKTYADSVKGRFTISRDNSKNTLYLQMNSLRAEDTAVYYCARAVPHSPSSFDIWGQGTMVTVSSKLEPKSSDKTHTPPPPPRTDIQMTQSPSTLSASVGDRVTVTCRASQSIYIWLAWYQQKPGKAPNLLIYKASSLETGVPSRFSGSGSGTEFTLTISSLQPDDFATYYCQQYYGSSRTFGQGTKVEIKRTVAAPSVFIFPPSDEQLKSGTASVVCLLNNFYPREAKVQWKVDNALQSGNSQESVTEQDSKDSTYSLSSTLTLSKADYEKHKVYACEVTHQGLSSPVTKSFNRGEC
chain 2: not shown
notes: PD-L1×CTLA4, structure 9, Fc S239D, I332E

How the values were obtained:
[1] = target: T3, human CTLA4 on cells (CHO-K1/hCTLA4; HEK293/hCTLA4; 293F-hCTLA4) (human, UniProt P16410 36-223); test: competition FACS: biotinylated B7-1-Fc to CHO-K1/hCTLA4 cells (Test 2)
T3 construct: whole, on cells
T3 sequence (P16410 36-223): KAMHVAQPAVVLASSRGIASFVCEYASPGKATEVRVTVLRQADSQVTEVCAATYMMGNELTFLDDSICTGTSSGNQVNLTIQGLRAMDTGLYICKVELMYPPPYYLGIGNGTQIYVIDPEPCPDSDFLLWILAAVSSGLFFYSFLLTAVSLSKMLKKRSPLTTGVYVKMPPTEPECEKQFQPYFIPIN

[2] = target: T4, human PD-L1 on cells (CHO-K1/hPDL1; MDA-MB-231) (human, UniProt Q9NZQ7 19-290); test: competition FACS: biotinylated PD-1 to CHO-K1/hPDL1 cells (Experiment 2)
T4 construct: whole, on cells
T4 sequence (Q9NZQ7 19-290): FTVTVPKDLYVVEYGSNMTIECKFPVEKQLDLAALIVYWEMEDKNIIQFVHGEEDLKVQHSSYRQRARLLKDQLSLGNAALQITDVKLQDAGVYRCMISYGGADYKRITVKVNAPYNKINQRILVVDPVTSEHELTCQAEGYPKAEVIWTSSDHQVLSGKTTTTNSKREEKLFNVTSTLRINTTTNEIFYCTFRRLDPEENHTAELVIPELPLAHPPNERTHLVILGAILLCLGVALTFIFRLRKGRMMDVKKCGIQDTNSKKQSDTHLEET

[3] = target: T3, human CTLA4 on cells (CHO-K1/hCTLA4; …); test: FACS, CHO-K1/hCTLA4 cells (Test 2)
[4] = target: T4, human PD-L1 on cells (CHO-K1/hPDL1; …); test: FACS, CHO-K1/hPDL1 cells (Experiment 2)
[5] = target: T1, biotinylated human BCMA-Fc, Avitag …; test: BLI (Octet Red96e), biotinylated BCMA-Fc on SA sensor, VH supernatant, 100 nM, single concentration
human BCMA = target: T2, human BCMA; test: flow cytometry, NCI-H929 cells, Flag-tagged VH single domain, anti-tag secondary antibody
[6] = target: T1, biotinylated human BCMA-Fc, Avitag …; test: BLI, dissociation rate relative to the original molecule PR001046 VH

Row | Binder | IC50 [1] | Maximum inhibition rate (%) [1] | IC50 [2] | Maximum inhibition rate (%) [2] | EC50 [3] | Maximum MFI [3] | EC50 [4] | Maximum MFI [4] | Response [5] | koff [5] | Maximum MFI (human BCMA) | Kdis fold [6] | EC50 (human BCMA)
1 | B1 | 6.22 nM | 99.2% | 0.5 nM | 82.3% | 9.9 nM | 781 MFI | 0.83 nM | 8310 MFI | – | – | – | – | –
2 | B2 | – | – | 0.27 nM | 79.8% | – | – | 0.5 nM | 8380 MFI | – | – | – | – | –
3 | B3 | – | – | – | – | – | – | – | – | 0.261 | 0.000696 s⁻¹ | 764 | 1 | –
4 | B4 | – | – | – | – | – | – | – | – | 0.261 | 0.000379 s⁻¹ | 1190 | 0.54 | 22.4 nM
5 | B5 | – | – | – | – | – | – | – | – | 0.535 | 0.000217 s⁻¹ | 1560 | 0.31 | 1.24 nM
6 | B6 | – | – | – | – | – | – | – | – | 0.269 | 0.0003 s⁻¹ | 1240 | 0.43 | 4.38 nM
7 | B7 | – | – | – | – | – | – | – | – | 0.573 | 0.000301 s⁻¹ | 1300 | 0.43 | 3.75 nM
8 | B8 | 2.97 nM | 100% | 1.69 nM | 81.4% | 4.65 nM | 401 MFI | 1.94 nM | 5660 MFI | – | – | – | – | –
